Measured values reported in the nanobody polyreactivity screen of Harvey et al. (2022).

Assay: yeast display, Sf9 membrane polyspecificity reagent, FACS + sequencing; frameworks hold sequencing errors
Method in brief: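 Sorting gates, low and high (top ~1%), were placed on anti-HA fluorescence to track expression and on streptavidin fluorescence to track reagent binding. A clone's polyreactivity label is taken from the gate it came out of. The reagent was 10% biotinylated, detergent-solubilized Sf9 membrane, applied for 1 hour at 4 °C to galactose-induced yeast display cells.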

| Sequence | polyreactivity (PSR sort gate) |
| --- | --- |
| QVQLVESGGGLVQAGGSLRLTCAASGRTFNDYAMGWYRQAPGKEMELVAGITWRGGSTYYADSVKGRFTISRHNAKNTVYLQMNSLKPEDTAVYYCAVKRPWRKMGYWGQGTQVTVSS | high polyreactivity |
| QVQLVESGGGLVQAGGSLRLTCAASGRTFQYYAMGWYRQAPGKERELVAAISQDGGSTYYADSVKGRFTISRDNSKNSVYLQMNSLKPEDTAVYYCAARVDEYAYYALDDYWGQGTQVTVSS | low polyreactivity |
| QVQLVESGGGLVQAGGSLRLTCAASGRTFSYYTIGWYRQAPGKELELVADITGSGGSTYYADSVKGRFTISRDNAKNTVYLQINSLKPEDTAVYYCSAGWPYVYYTWYWTMDYWGQGTQVTVSS | high polyreactivity |
| QVQLVESGGGLVQAGGSLRLTCAASGRTFTIYAMGWYRQAPGKERELVAAISSSSGSTYYADSVKGRFPISRDNAKNTVYLQKNSLKPEDTAVYYCAVKLSGQAAQRRYDYWGQGTQVTVSS | high polyreactivity |
| QVQLVESGGGLVQAGGSLRLTCAASGRTFTRYAMGWYRQAPGKERELVAAISGGGGSTYYADSVKGRFTISRDNAKNTVYLQMNSLKPEDTAVYYCNAAARGSSFDYWGQGTQVTVSS | low polyreactivity |
| QVQLVESGGGLVQAGGSLRLTCAASGRTFWTNAMGWYRQAPGKVRELVAAIRNSGGRTYYADSVKGRFTISRDNAKNTVYLQMNSLKPEDTAVYYCNADFWYSYGYDYWGQGTQVTVSS | low polyreactivity |
| QVQLVESGGGLVQAGGSLRLTCAASGRTFYLYAMGWYRQAPGKERELVAAITTSGGSTYYADSVKGRFTFSRDNAKNTVYLQMNSLKPEDTAVSYCNTDLSSTKFDYWGQGTQVTVSS | low polyreactivity |
| QVQLVESGGGLVQAGGSLRLTCAASGRTYRKNAMGWYRQAPGKETELVAAITGSSGTTYYADSVKARFTISRDNAKISVYFQMNSLKPEDTAVYYCATTVCDPGRRYYYWGLGTQVTVSS | high polyreactivity |
| QVQLVESGGGLVQAGGSLRLTCAASGSIFGDYAMGWYRQAPGKEREFVAGITRRGGRTYYADSVKGRFTISRDNAKNTVYLQMNSLKPEDTAVYYCNAVYSSSLRSKYDYWGQGTQVTVSS | high polyreactivity |
| QVQLVESGGGLVQAGGSLRLTCAASGSIFGFNAMGWYRQAPGKERELGAAISSGSTYYADSVKGRFTISRDNAKNTVYLQINSLKPEDTAVYYCNARSNRGRFEYWGQGTQVTESS | low polyreactivity |
| QVQLVESGGGLVQAGGSLRLTCAASGSIFLYYAMGWYRQAPGKERELVAGINRVGSTNYADSVKGRFTISRDNAKNTVNLQMNSLKPEDTAVYYCNKRATRSRRRGYWGQGTQVTVSS | low polyreactivity |
| QVQLVESGGGLVQAGGSLRLTCAASGSIFNRYSMGWYRQATGKERELVAVIRWRDGSTYYADSVKGRFTISRDNEKNTVYLQMNSLKPEDTAVYYCAAVYWGEEYEYWGQGTQVTVSS | low polyreactivity |
| QVQLVESGGGLVQAGGSLRLTCAASGSIFPYYAMGWYRQAPGKEREFVAVISRRGGSTYYADSVKGRFTISRDNAKNTVYLQMNSLKPEDTAVYYCNARGYNLLDDWGQGTQVTVSS | high polyreactivity |
| QVQLVESGGGLVQAGGSLRLTCAASGSIFRVNAMGWYRQAPGKERELVAAISSGGSTHYADSVKGRFTMSRDNAKNTVYLLMNSLKPEDTAVYYCAVRGERRYIYDYWGQGTQVTVSS | high polyreactivity |
| QVQLVESGGGLVQAGGSLRLTCAASGSIFRWNAMGWYRQAPGKERELVASITSGGSTYYADSVKGRFTISRDNAKNTVYLQMISLKPEDTAVYYCAAARYPGRKFDYWGQGTQVTVSS | high polyreactivity |
| QVQLVESGGGLVQAGGSLRLTCAASGSIFTYYVMGWYRQAPGKERELVATITGSSGSTYYADSVKGRFTISRDNAKNTVFLQMNSLKPEDTAVYYCATYGTLVYYYYPDMEYWGQGTQVTVSS | low polyreactivity |
| QVQLVESGGGLVQAGGSLRLTCAASGSIFVRNSMGWYRQAPGKERELVAAIIRSGGSTYYADSVKGRFTISRDNAKNTVYLQMNSLKPEDTAVYYCNALIRYNRYTGRDYWGQGTQVTVSS | high polyreactivity |
| QVQLVESGGGLVQAGGSLRLTCAASGSIFYLNAMGWYRQAPGKERELVATISNGGSTNYADSVKGRFTISRDNAKNTVYLQMYSLKPEDTAVYYCAAASGGTVVGEGDYWGLGTQVTVSS | low polyreactivity |
| QVQLVESGGGLVQAGGSLRLTCAASGSIFYLYAMGWYRQAPGKETELVAAISRTGSTYADSVKGRFTISRDNAKKTVYLQMNSLKPEDTAVYYCAAEYRYYWYGTMNYWGQGTQVTVSS | low polyreactivity |
| QVQLVESGGGLVQAGGSLRLTCAASGSIFYPYAMGWYRQAPGKERELVAAISWSGGSTYYADSVKGRFTISRDNAKNTVYLQMKSLKPEDTAVYYCNAVGHWFYSSGRYYGDDYWGQGTQVTVSS | high polyreactivity |
| QVQLVESGGGLVQAGGSLRLTCAASGSIIWAYAKGWYRQAPGKERELVAAISSGGSTYYADSVKGRFTISRDNAKNIVYLQMNCLKPEDTPVFYCAASWSRRYYYWGQGTQVTVSS | high polyreactivity |

| Sequence | polyreactivity (PSR sort gate) |
| --- | --- |
| QVQLVESGGGLVQAGGSLRLTCAASGSISFGYAMGWYRQAPGKERELVAAITWSTARTYYADSVKGRFTISRDNAKNTVYLQMNSLKPEDTAVYYCAKGGYWGQGTQVTVSS | high polyreactivity |
| QVQLVESGGGLVQAGGSLRLTCAASGSIVWYAMGSYRQATGKEREVVAAISRRGGSTYYADSVKGRFTISRDNAKNTVYLQSKSLKSEDTAVYYCADRPAREEYDYWGQGTQVTVSS | high polyreactivity |
| QVQLVESGGGLVQAGGSLRLTCAASGSTFADYAMGWYRQAPGKERELVAAITGDGGNTYYADSVKGRFTISRDNAKNTVYLQMNSLKPEDTAVYYCAAEHETGAYYYWGLGTQVTVSS | high polyreactivity |
| QVQLVESGGGLVQAGGSLRLTCAASGSTFDTYAMGWYRQAPGKERELVAAISGSGVRTYYADSVKGRFTISRDNAKNTVYLQMNSLKPEDTAVYYCAARYPRRCGEYGYWGQGTQVTVSS | high polyreactivity |
| QVQLVESGGGLVQAGGSLRLTCAASGSTFKQNVMGWYRQAPGKERELVAAITSGGSTNYADSVKGRFTISRDNAKNTVYLQMNSLKPEDTAVYYCNKDTSGIYLDDYWGQGTQVTVSS | low polyreactivity |
| QVQLVESGGGLVQAGGSLRLTCAASGSTFPRYAMGWYRQAPGKEREFVAVIWSGGSTYYADSVKGRFTISRDNAKNTVYLQMNSLKPEDSAVYYCAAEYHTLSKYSGYATHDYWGQGTQVTVSS | low polyreactivity |
| QVQLVESGGGLVQAGGSLRLTCAASGSTFSKNAMGWYRQATGNERELVASISSSVGSTYYSDSVKGRFTISRDNAKNTVYLQMNSLKPEDTAVYYCATRRGRGYYYWGQGTQVTVSS | high polyreactivity |
| QVQLVESGGGLVQAGGSLRLTCAASGSTFWAYAMGWYRQAPGKERELVAAITTGGGRTFYADSVKGRFTISRDNAKNTVYLQMNSLIPEDTAVYYCAAVSQSYRMYYWGQGTQVTVSS | low polyreactivity |
| QVQLVESGGGLVQAGGSLRLTCAASGSTFYIYAMGWDRQAPGKEAEFVAAIDFSGSSTYADSVKGRFTISRDNAKNTVYLQMNSLKPEDTAVYYCAAYQIYQYDGPYDYWGEGTQVTVSS | low polyreactivity |
| QVQLVESGGGLVQAGGSLRLTCAASGSTFYPYAMGWYRQAPGKERELVAAISSGGSTYYADSVKGRFTISRDNAKNSVYLQMNSLKPEDTAVYYCAADFYYAYYWGQGTQVTVSS | low polyreactivity |
| QVQLVESGGGLVQAGGSLRLTCAASGSTLYSYAMGWYRPAPGKERELVAAISKSGGRTYYADSVKGRFTISRDNAKISVYLEMNSLKPEDTAVYYCAGREKYTPALEVEYWGQGTQVTVSS | high polyreactivity |
| QVQLVESGGGLVQAGGSLRLTCAASGSTYLNYAMGWYRQAPGKERELVAAITSGGRTYYADSVKGRFTISRDNAKNTVYLQMNSLKPEDTAVYYCAKVSYRYGLYDYWGQGTQVTVSS | high polyreactivity |
| QVQLVESGGGLVQAGGSLRLTCAASGYAMGWYRQAPGKERELVAAISWSGDITYADSVKGRFTISRDNAKNTVYLQMNRLKPEDTAVYSCNADRYTGRDGEQSLDYWGQGTQVTVSS | low polyreactivity |
| QVQLVESGGGLVQAGGSLRLTCAASGYTFNYYAKGWYRQAPGKERELVAAIDWSDGTTYYADSVKGRFTISPDYAKNTVYLQMNSLKPEDTAVYYCAASLSQSEYDYWGQGTLVTVSS | low polyreactivity |
| QVQLVESGGGLVQAGGSLRLTCAASRIIFRKYAMGWYRQAPGKERELVAAISSSAGSTYYADSVKGRFTISRDNAKNTVYLQMNSLKPEDTAVYYCAADRHYTRYDYWGQGTQVTVSS | high polyreactivity |
| QVQLVESGGGLVQAGGSLRLTCAATGRTFYNGMGWYRQAPGKERELVAAISRGGSTYYADSVKGRFTISRDNAKNTFYLQMTSLKPEDTAVYYCAIDQSRYVYVTLRGGYWGLGTQVTVSS | low polyreactivity |
| QVQLVESGGGLVQAGGSLRLTCADSGIIYTYNAMRWYRQAPGKEMEFVATITWSGGSTYYADSVKGRFTISRDNAMNTVYFQMNSLKPEDTAVYYCAVDYSRHGYWSPVYEFNYWGQGTQVTVSS | low polyreactivity |
| QVQLVESGGGLVQAGGSLRLTCAPSVRIFTIYDMGRYRQAPGKERELVATITYSSGSTSYADSVKGRFTISRDNAKNTVYLLMNSLKPEDTAVYYCAKKYYSGYGYWGQGTQVTVSS | low polyreactivity |
| QVQLVESGGGLVQAGGSLRLTCDASGYIFSKYAMGWYRQAPGKERELVAAISGSGGSTSYADSVKGRFTISRDNAKNTVYLQMYCLKPEDTAVYYCIARSRLQRGRMDYWGQGTQVTVSS | high polyreactivity |
| QVQLVESGGGLVQAGGSLRLTSAASGYIFEEYDMGCYRQAPGKERELVAAIRFSSASTTYADSVKGRFTISRDNAKNTVYLQMNSLKPEDTAVYYCAVKAGDVYSDYDYWGQGTQVTVSS | low polyreactivity |
